# Target: Pyruvate kinase M2 (mouse (endogenous in RAW264.7)) (UniProt P52480)
# Test: not stated; PKM2 tetramer in LPS-treated RAW264.7 cells with celastrol (Fig. S4); method not given
# Pyruvate kinase M2, P52480 1-531 (enzyme; other documents disagree on this pair), sequence (P52480 whole entry): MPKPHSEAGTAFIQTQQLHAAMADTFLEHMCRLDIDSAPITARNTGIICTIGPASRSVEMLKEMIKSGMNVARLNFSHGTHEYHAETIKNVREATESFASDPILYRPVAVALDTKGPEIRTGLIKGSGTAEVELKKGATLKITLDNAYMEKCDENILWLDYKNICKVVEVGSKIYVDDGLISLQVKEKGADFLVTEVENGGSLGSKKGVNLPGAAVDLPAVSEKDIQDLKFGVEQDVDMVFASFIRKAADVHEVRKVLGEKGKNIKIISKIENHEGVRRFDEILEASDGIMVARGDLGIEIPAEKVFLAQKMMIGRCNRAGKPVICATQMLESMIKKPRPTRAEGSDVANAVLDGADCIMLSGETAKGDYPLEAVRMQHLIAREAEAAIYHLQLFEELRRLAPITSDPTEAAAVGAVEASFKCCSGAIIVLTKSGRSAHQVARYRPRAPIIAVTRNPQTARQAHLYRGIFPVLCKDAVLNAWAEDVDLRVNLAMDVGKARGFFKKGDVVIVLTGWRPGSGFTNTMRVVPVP
substance,measurement,value
"Pyruvate kinase M2, P52480 1-531 (enzyme; other documents disagree on this pair)",stoichiometry N,4

# Reference: article PMC9461663, “Covalent Inhibition of Pyruvate Kinase M2 Reprograms Metabolic and Inflammatory Pathways in Hepatic Macrophages against Non-alcoholic Fatty Liver Disease” (International Journal of Biological Sciences, 2022)
